According to patent US20260265379A1 (IMCHECK THERAPEUTICS, published 2026):

Assays:
recombinant human BTN3A1 = target: T1, recombinant human BTN3A1 (human, UniProt O00481 30-254); assay: SPR
T1 construct: Soluble form of the antigen used in SPR; also called rhBTN3A1; recombinant BTN3A1 protein

recombinant human PD-L1 = target: T2, recombinant human PD-L1 (human, UniProt Q9NZQ7 19-239, limits assumed); assay: SPR
T2 construct: Soluble antigen in SPR; also called rhPD-L1

[1] = target: T3, PD-L1 at the surface of transduced cells (UniProt Q9NZQ7 19-290, limits assumed); assay: flow cytometry, CHO-PD-L1 cells
T3 construct: whole, on cells; CHO-PD-L1 cells in flow cytometry, Raji-PD-L1 cells in the reporter assay; also called CHO-PD-L1; Raji-PD-L1

[2] = target: T4, BTN3A1 at the surface of HEK-BTN3A1 cells (human, UniProt O00481 30-513); assay: flow cytometry, HEK-BTN3A1 cells
T4 construct: HEK 293T BTN2A/BTN3A KO cells transduced with a BTN3A1 expressing vector
T4 sequence (O00481 30-513 limits assumed): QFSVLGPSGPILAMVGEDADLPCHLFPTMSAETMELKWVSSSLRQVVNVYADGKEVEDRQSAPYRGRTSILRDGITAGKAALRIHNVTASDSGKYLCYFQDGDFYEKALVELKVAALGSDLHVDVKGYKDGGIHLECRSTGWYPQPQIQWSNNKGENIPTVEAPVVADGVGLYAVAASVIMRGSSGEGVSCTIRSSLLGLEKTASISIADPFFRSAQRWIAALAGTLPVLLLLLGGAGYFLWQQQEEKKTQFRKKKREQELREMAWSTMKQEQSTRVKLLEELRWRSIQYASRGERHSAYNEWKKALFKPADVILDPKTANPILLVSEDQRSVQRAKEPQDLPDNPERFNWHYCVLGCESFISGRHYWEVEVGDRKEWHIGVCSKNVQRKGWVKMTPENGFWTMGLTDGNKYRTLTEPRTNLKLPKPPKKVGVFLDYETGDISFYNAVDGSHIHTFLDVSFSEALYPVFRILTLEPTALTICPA

T3 sequence (Q9NZQ7 19-290 limits assumed): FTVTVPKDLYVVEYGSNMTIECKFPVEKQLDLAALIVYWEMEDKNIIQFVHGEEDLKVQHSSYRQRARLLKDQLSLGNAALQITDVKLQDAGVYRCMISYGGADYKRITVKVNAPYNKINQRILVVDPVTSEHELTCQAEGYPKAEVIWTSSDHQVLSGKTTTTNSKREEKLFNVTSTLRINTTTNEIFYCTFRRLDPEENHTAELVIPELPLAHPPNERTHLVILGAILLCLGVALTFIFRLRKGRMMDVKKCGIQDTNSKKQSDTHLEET
T1 sequence (O00481 30-254 limits assumed): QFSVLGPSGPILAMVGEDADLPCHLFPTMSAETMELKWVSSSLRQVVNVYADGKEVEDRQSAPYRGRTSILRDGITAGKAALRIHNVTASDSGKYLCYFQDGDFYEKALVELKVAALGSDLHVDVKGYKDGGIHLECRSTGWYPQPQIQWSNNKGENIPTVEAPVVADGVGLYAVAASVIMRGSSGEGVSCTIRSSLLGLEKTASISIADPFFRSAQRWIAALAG
T2 sequence (Q9NZQ7 19-239 limits assumed): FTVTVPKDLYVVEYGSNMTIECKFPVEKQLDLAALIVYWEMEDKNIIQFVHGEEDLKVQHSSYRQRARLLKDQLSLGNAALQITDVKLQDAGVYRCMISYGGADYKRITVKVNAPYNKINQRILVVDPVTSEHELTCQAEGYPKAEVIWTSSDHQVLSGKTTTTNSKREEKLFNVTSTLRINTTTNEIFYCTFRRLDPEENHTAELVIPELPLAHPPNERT

Row | Binder | Kd (recombinant human BTN3A1) [nM] | Kd (recombinant human PD-L1) [nM] | MFI at 10 nM [1] [MFI] | MFI at 100 nM [1] [MFI] | MFI at 100 nM [2] [MFI] | MFI at 10 nM [2] [MFI]
1 | bsAb024 (bispecific antibody, IgG anti-PD-L1, scFv anti-BTN3A) heavy: QVQLVQSGAEVKKPGASVKLSCKASGYIFTRYYMYWVKQRPGQGLEWIGEINPNNGGTKFNEKFKNRATLTVDKSISTAYMELSRLRSDDTAVYYCSREDDYDGTPFAMDYWGQGTLVTVSSGGGGSGGGGSGGGGSGGGGSDIQMTQSPSSLSASVGDRVTITCHASQNINVWLSWYQQKPGKAPKLLIYKASNLHTGVPSRFTGSGSGTDFTFTISSLQPEDIATYYCQQGQTYPYTFGQGTKLEIKGGGGSGGGGSGGGGSGGGGSEVQLVESGGGLVQPGGSLRLSCAASGFTFSRYWMSWVRQAPGKGLEWVANIKQDGSEKYYVDSVKGRFTISRDNAKNSLYLQMNSLRAEDTAVYYCAREGGWFGELAFDYWGQGTLVTVSSASTKGPSVFPLAPSSKSTSGGTAALGCLVKDYFPEPVTVSWNSGALTSGVHTFPAVLQSSGLYSLSSVVTVPSSSLGTQTYICNVNHKPSNTKVDKRVEPKSCDKTHTCPPCPAPEFEGGPSVFLFPPKPKDTLMISRTPEVTCVVVDVSHEDPEVKFNWYVDGVEVHNAKTKPREEQYNSTYRVVSVLTVLHQDWLNGKEYKCKVSNKALPASIEKTISKAKGQPREPQVYTLPPSREEMTKNQVSLTCLVKGFYPSDIAVEWESNGQPENNYKTTPPVLDSDGSFFLYSKLTVDKSRWQQGNVFSCSVMHEALHNHYTQKSLSLSPG light: EIVLTQSPGTLSLSPGERATLSCRASQRVSSSYLAWYQQKPGQAPRLLIYDASSRATGIPDRFSGSGSGTDFTLTISRLEPEDFAVYYCQQYGSLPWTFGQGTKVEIKRTVAAPSVFIFPPSDEQLKSGTASVVCLLNNFYPREAKVQWKVDNALQSGNSQESVTEQDSKDSTYSLSSTLTLSKADYEKHKVYACEVTHQGLSSPVTKSFNRGEC | 0.073 | 0.065 | 762000 | 794000 | 1.66e+06 | –
2 | bsAb036 (bispecific antibody, one Fab arm anti-PD-L1, two scFv anti-BTN3A; not shown: IgG1 CH1-hinge-CH2-CH3; CH2-CH3 (Fc)) heavy (part 1 of 2): EVQLVESGGGLVQPGGSLRLSCAASGFTFSRYWMSWVRQAPGKGLEWVANIKQDGSEKYYVDSVKGRFTISRDNAKNSLYLQMNSLRAEDTAVYYCAREGGWFGELAFDYWGQGTLVTVSS heavy (part 2 of 2): GGGGSGGGGSGGGGSGGGGSQVQLVQSGAEVKKPGASVKLSCKASGYIFTRYYMYWVKQRPGQGLEWIGEINPNNGGTKFNEKFKNRATLTVDKSISTAYMELSRLRSDDTAVYYCSREDDYDGTPFAMDYWGQGTLVTVSSGGGGSGGGGSGGGGSGGGGSDIQMTQSPSSLSASVGDRVTITCHASQNINVWLSWYQQKPGKAPKLLIYKASNLHTGVPSRFTGSGSGTDFTFTISSLQPEDIATYYCQQGQTYPYTFGQGTKLEIK heavy: GGGGSGGGGSGGGGSGGGGSQVQLVQSGAEVKKPGASVKLSCKASGYIFTRYYMYWVKQRPGQGLEWIGEINPNNGGTKFNEKFKNRATLTVDKSISTAYMELSRLRSDDTAVYYCSREDDYDGTPFAMDYWGQGTLVTVSSGGGGSGGGGSGGGGSGGGGSDIQMTQSPSSLSASVGDRVTITCHASQNINVWLSWYQQKPGKAPKLLIYKASNLHTGVPSRFTGSGSGTDFTFTISSLQPEDIATYYCQQGQTYPYTFGQGTKLEIK light: EIVLTQSPGTLSLSPGERATLSCRASQRVSSSYLAWYQQKPGQAPRLLIYDASSRATGIPDRFSGSGSGTDFTLTISRLEPEDFAVYYCQQYGSLPWTFGQGTKVEIKRTVAAPSVFIFPPSDEQLKSGTASVVCLLNNFYPREAKVQWKVDNALQSGNSQESVTEQDSKDSTYSLSSTLTLSKADYEKHKVYACEVTHQGLSSPVTKSFNRGEC | 0.457 | 0.055 | 1.03e+06 | 1.24e+06 | 1.22e+06 | 682000
